Laboratory results taken from publication doi:10.1101/797431 (bioRxiv, 2019).

Target: E. coli RecQ helicase, wild type (E. coli, UniProt P15043 1-609)
Test: fluorescence polarisation

E. coli RecQ helicase, wild type, sequence (P15043 whole entry): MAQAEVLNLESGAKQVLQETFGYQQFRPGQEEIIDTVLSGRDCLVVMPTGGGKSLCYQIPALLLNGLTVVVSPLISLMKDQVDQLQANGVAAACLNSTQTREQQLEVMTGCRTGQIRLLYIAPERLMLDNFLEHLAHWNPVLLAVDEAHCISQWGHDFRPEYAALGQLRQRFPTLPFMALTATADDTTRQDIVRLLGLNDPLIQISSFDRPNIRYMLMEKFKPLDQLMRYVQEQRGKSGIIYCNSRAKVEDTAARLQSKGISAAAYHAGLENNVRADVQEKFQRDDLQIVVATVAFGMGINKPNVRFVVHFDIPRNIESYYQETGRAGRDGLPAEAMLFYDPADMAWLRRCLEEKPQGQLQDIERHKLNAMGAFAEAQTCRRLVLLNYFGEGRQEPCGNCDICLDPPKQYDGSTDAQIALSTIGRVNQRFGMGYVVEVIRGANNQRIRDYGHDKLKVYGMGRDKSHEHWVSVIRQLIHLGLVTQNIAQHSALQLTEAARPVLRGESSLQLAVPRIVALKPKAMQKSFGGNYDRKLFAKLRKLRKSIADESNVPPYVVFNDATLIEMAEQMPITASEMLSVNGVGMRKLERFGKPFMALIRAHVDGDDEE

B1: N-terminally fluorescein-labeled SSB C-terminal peptide (Flu-MDFDDDIPF) (peptide)
peptide: MDFDDDIPF
modifications: fluorescein on the N-terminus
B1: binds.
